This passage reports Kd results from patent US20240175877A1.

The target of this test is Ara h 2 (peanut) (UniProt Q6PSU2). Description: SPR, Biacore 3000. On the technique in general: SPR reads the build-up and loss of mass on a sensor chip optically.
Ara h 2 (peanut), sequence (Q6PSU2 23-172): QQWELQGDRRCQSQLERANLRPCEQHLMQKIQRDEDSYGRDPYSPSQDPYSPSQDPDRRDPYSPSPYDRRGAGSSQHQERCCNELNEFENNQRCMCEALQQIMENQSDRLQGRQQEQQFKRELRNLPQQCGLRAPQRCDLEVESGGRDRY

B1: 13BU2T1 (antibody, IgG1, V domains shown)
VH: VESGGGVVQPGASLRLSCVASGFTFRDYSMHWVRQAPGKGLEWMSFIRFDGTTKDYRESVKGRFIISRDDSKNTLYLQMTSLRPEDTARYYCVKDNGWRAFDHWGQGALVIVSS
VL: EIVMTQSPLSLPVTPGEAASISCRSSQSLLHRNGYIYLDWYLQRPGQSPQLLISFVSKRASGAPDRFSGSGSGTDFTLTISRVEAEDFGVYFCMQSLENPWTFGP
The term Kd denotes the free concentration of one partner at which half of the binding sites on the other are occupied at equilibrium, for simple one-to-one binding. B1 came in with a Kd of 4.85 nM.
